According to patent US20220033439A1 (SEOUL NATIONAL UNIVERSITY R AND DB FOUNDATION, published 2022):

B2: Mycobacterium tuberculosis toxin protein VapC26 (enzyme)
chain: MIIDTSALLAYFDAAEPDHAAVSECIDSSADALVVSPYVVAELDYLVATRVGVDAELAVLRELAGGAWELANCGAAEIEQAARIVTKYQDQRIGIADAANVVLADRYRTRTILTLDRRHFSALRPIGGGRFTVIP

Columns and labels:
[1] = molecular target: B2; test: size exclusion chromatography with multi-angle light scattering
[2] = molecular target: the molecule itself; test: crystal structure and size exclusion chromatography with MALS; VapB26 homodimer
[3] = molecular target: the molecule itself; test: crystal structure; VapC26 homodimer

B1: Mycobacterium tuberculosis antitoxin protein VapB26 (other)
chain: MDKTTVYLPDELKAAVKRAARQRGVSEAQVIRESIRAAVGGAKPPPRGGLYAGSEPIARRVDELLAGFGER
[1]
  binding result: binds
[2]
  binding result: binds

## B2
[3]
  binding result: binds
